Test results published in publication PMC10696396, “HilE represses the activity of the Salmonella virulence regulator HilD via a mechanism distinct from that of intestinal long-chain fatty acids” (The Journal of Biological Chemistry, 2023).

Legend:
[1] = molecular target: EYFP-HilD (Salmonella enterica) (UniProt P0CL08); test: MST; HilE titrated against EYFP-HilD preincubated with 1% DMSO; MST on-time 1.5 s, 25 °C
[2] = molecular target: EYFP-HilD (Salmonella enterica) (UniProt P0CL08); test: MST; HilE titrated against 50 nM EYFP-HilD; 25 °C, 0.05% Pluronic F-127, MST on-time 1.5 s
[3] = molecular target: HilD (full-length, unfused) (Salmonella enterica) (UniProt P0CL08); test: SEC-MALS; Superdex 75 Increase 10/300 GL, 50 mM NaH2PO4 pH 7.0, 200 mM NaCl, 0.5 ml/min; protein concentrations of 100 μM (Fig. 4, D and E)

What does the source list for HilE (natural protein)?
Kd [1]: 1630 nM; Kd [2]: 1820 nM; stoichiometry N [3]: 1
